Test results: patent publication US8802826B2, “Anti-clusterin antibodies and antigen binding fragments and their use to reduce tumor volume” (Alethia Biotherapeutics Inc., priority 2009, dated 2014)

How the values were obtained:
[1] = tested on: PC-3 prostate cancer cells; assay: PC-3 prostate tumor xenograft; type: in vivo, SCID mice; settings: single injection 10 mg/kg i.p. on day 5
Description: PC-3 prostate cancer cells (2×10^6) were implanted s.c. into SCID mice and allowed to grow until the tumor sizes were approximately 100 mm^3. Tumors were measured bi-weekly with a digital caliper and tumor volumes were calculated as L×W×H. Each group contained 8 animals that were randomized prior to the beginning off the treatments. The results were expressed as mm^3±SEM.
A second prostate cancer model study was conducted in a different tumor model by implanting PC-3 prostate cancer cells. PC-3 cells are also hormone-insensitive but are documented as being slightly more invasive than the DU145 cells. As was described above, the cells were implanted sub-cutaneously in SCID mice and treatments were initiated when the tumors reached a volume of approximately 100 mm^3 (designated day 1). The h16B5 injections were administered i.p. on day 1 at 5 mg/kg and continued twice per week thereafter whereas a single TxT injection at 10 mg/kg was administered i.p. on day 5.

[2] = molecular target: T1, human clusterin (recombinant monomeric clusterin) (Homo sapiens, UniProt P10909); assay: BIAcore kinetic analysis of antibody binding to immobilized clusterin; settings: for KD of the interaction with immobilized human clusterin: stated in words
T1 construct: Recombinant monomeric clusterin was immobilized on a CM3 chip with normal amine coupling method
T1 sequence (P10909 23-449): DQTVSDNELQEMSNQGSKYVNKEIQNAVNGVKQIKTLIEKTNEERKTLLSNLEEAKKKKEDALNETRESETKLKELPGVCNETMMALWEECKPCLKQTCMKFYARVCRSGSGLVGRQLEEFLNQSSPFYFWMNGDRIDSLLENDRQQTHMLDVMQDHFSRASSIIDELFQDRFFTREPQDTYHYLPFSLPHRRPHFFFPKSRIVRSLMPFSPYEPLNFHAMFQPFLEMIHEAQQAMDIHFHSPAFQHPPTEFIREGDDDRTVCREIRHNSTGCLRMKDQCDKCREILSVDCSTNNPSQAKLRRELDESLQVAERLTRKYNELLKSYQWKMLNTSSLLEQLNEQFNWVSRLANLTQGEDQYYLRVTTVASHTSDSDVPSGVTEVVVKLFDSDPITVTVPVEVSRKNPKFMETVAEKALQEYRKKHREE
Description: The purpose of these investigations is to determine the kinetics parameters of anti-clusterin antibodies. In particular, to determine whether the humanization of the 16B5 and 21B12 anti-clusterin monoclonal antibody affects the kinetics parameters of its binding to human clusterin. To this end, a kinetic analysis method was developed using the BIAcore 3000. Human clusterin was immobilized on a sensor chip. Full length antibodies or Fab fragments were injected and allowed to interact with the immobilized clusterin. This example described the exemplary antibody 16B5 but the 21B12 exemplary antibody was prepared and tested in a similar manner.
HBST (10 mM Hepes pH 7.4, 135 mM NaCl, 3.4 mM EDTA, 0.005% Tween 20) was used as running buffer for all BIAcore experiments. Recombinant monomeric clusterin was immobilized on a CM3 chip with normal amine coupling method at a flow of 5 μl/min. Surface was activated with 35 μl of a mixture of 50 mM NHS/0.2M EDC. Clusterin in 10 mM Na-acetate pH 4.5 was injected until a desired amount was captured (below 60RU). Unreacted esters were deactivated with 35 μL1 of 1M ethanolamine hydrochloride-NaOH pH8.5. A control surface was prepared by injecting NHS/EDC and ethanolamine in the same manner.
Kinetics analysis was conducted at a flow of 50 μl/min. Full length antibodies (mouse or humanized) or Fab were diluted in HBST. Concentration range was from 1.953-31.25 nM for the full length antibodies and 15.625-250 nM for the Fab. Each concentration was injected over the clusterin and a control surface for 5 min followed with a 5 min dissociation wash. The clusterin surface was regenerated between each antibody injection with 50 μl of 20 mM HCl.

EMT6 cells = assay: wound healing (scratch) migration assay; type: cell-based, mouse; settings: 37 C for 15 h
Description: FIG. 4. h16B5 blocks the migration of cancer cell lines.
To test the activity of anti-clusterin antibodies against cancer cell migration, a standard wound healing, or scratch assay, was used. In this assay, EMT6 cells, a mouse mammary carcinoma cell line, was plated at high density and subjected to wounding by the creation of a scratch in the cell layer. At time 0, a wide denuded area is evident that quickly fills up after incubation of the cells at 37 C for 15 h (see upper left-hand panels in FIG. 4).

## CC(=O)O[C@@]12CO[C@@H]1C[C@H](O)[C@@]1(C)C(=O)[C@H](O)C3=C(C)[C@@H](OC(=O)[C@H](O)[C@@H](NC(=O)OC(C)(C)C)c4ccccc4)C[C@@](O)([C@@H](OC(=O)c4ccccc4)[C@H]21)C3(C)C [TxT, taxotere, reference compound]
[1]
  time after injection at which tumors appeared to recover from treatment: approximately 18 days

B1: HH16B5 Fab: Fab fragment of humanized 16B5 prepared by papain digestion (antibody, V domains shown)
VH: QVQLVQSGAEVKKPGATVKISCKVSGFNIKDIYMHWVQQAPGKGLEWMGRIDPAYGNTKYDPKFQGRVTITADTSTDTAYMELSSLRSEDTAVYYCARRYDTAMDYWGQGTLVTVSS
VL: DIVMTQSPDSLAVSLGERATINCKSSQSLLNSRTRKNYLAWYQQKPGQPPKLLIYWASTRESGVPDRFSGSGSGTDFTLTISSLQAEDVAVYYCKQSYNLWTFGQGTKLEIK
[2]; full length vs full length, Fab vs Fab
  kinetics parameters compared with the parent mouse antibody: slightly better

B2: mouse 21B12: parent mouse anti-clusterin monoclonal antibody, VL SEQ ID NO.:33, VH SEQ ID NO.:37 (antibody, V domains shown)
VH: QIQLVQSGPELKKPGETVKISCKASGYTFTNYGMHWVKQAPGKGLKWMGWINTYTGEPTYADDFKGRFAFSLETSASTAYLQINNLKNEDTATYFCARDGFLYFFDYWGQGTTLTVSS
VL: DIVMSQSPSSLAVSVGEKVTMSCKSSQSLLYSSNQKNYLAWYQQRPGQSPKLLIYWASTRESGVPDRFTGSGSGTDFTLTISSVKAEDLAVYYCQQYYIYPRTFGGGTKLEIK
modifications: murine 21B12 VH; murine 21B12 VL
[2]
  KD of the interaction with immobilized human clusterin: low nM range

B3: mouse 16B5: parent mouse anti-clusterin monoclonal antibody, VL SEQ ID NO.:25, VH SEQ ID NO.:29 (antibody, V domains shown)
VH: EVQLQQSGAELVKPGASVRLSCTTSGFNIKDIYMHWVKQRPEQGLEWIGRIDPAYGNTKYDPKFQGKATITADTSSNTAYLQLSSLTSEDTAVYYCARRYDTAMDYWGQGTSVTVSS
VL: DIVMSQSPSSLAVSAGEKVTMSCKSSQSLLNSRTRKNYLAWYQQKPGQSPKLLIYWASTRESGVPDRFTGSGSGTDFTLTISSVQAEDLAVYYCKQSYNLWTFGGGTKLEFK
modifications: murine 16B5 VH; murine 16B5 VL
[2]
  KD of the interaction with immobilized human clusterin: low nM range
EMT6 cells
  migration of cells into the denuded area: reduced number of cells in the denuded area
